Experimental data from patent US20130089497A1 (Genentech, published 2013).

Key:
[1] = biological target: T1, gD tagged human FcRH6 on SVT2 cells (human, UniProt Q6DN72 20-434); test: FACS, SVT2.MSCV.gD.FcRH6 cells, PE mu anti-human IgG
T1 construct: whole, on cells; also called huFcRH6; not shown: gD tag; the construct for this FcRH is not described
T1 sequence (looked up): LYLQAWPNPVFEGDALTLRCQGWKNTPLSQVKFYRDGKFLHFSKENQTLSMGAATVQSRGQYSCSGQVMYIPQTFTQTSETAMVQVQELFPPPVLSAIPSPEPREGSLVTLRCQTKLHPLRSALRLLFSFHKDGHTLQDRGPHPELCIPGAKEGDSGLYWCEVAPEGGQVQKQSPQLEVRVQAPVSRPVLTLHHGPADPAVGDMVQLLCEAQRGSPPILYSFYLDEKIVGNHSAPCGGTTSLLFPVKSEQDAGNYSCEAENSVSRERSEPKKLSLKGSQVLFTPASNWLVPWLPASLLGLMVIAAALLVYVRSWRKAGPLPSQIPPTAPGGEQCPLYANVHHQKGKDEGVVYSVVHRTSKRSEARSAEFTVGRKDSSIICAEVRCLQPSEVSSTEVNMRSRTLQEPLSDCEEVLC

[2] = biological target: T2, gD tagged human FcRH1 on SVT2 cells (human, UniProt Q96LA6 17-429); test: FACS, SVT2.MSCV.gD.FcRH1 cells, PE mu anti-human IgG
T2 construct: whole, on cells; also called huFcRH1; not shown: gD tag
T2 sequence (looked up): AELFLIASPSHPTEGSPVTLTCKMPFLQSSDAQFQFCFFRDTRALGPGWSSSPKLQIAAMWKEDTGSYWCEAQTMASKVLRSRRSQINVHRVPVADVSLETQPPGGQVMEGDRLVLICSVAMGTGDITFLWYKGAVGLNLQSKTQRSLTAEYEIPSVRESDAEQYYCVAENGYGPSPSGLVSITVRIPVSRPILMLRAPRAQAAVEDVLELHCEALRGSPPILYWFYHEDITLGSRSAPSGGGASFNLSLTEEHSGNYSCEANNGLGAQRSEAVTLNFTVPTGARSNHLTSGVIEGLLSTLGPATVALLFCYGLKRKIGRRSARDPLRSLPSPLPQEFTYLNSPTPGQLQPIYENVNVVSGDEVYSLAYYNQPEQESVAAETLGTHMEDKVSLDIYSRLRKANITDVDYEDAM

[3] = biological target: T3, gD tagged human FcRH4 on SVT2 cells (human, UniProt Q96PJ5 20-515); test: FACS, SVT2.MSCV.gD.FcRH4 cells, PE mu anti-human IgG
T3 construct: whole, on cells; also called huFcRH4; IRTA1; not shown: gD tag; the construct for this FcRH is not described
T3 sequence (looked up): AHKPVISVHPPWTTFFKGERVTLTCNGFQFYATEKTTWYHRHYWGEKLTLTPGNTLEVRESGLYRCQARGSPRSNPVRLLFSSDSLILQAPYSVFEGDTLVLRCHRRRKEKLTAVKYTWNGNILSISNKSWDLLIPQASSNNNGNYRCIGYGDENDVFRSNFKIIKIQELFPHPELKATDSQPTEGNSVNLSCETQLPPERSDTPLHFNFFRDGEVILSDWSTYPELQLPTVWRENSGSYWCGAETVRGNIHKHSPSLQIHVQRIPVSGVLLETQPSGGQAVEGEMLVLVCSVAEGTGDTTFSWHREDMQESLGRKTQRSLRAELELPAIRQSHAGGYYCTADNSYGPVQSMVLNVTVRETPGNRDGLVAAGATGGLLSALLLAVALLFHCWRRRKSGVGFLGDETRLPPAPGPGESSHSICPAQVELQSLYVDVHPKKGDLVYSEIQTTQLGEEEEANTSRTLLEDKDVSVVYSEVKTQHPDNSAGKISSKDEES

[4] = biological target: T4, gD tagged human FcRH3 on SVT2 cells (human, UniProt Q96P31 18-734); test: FACS, SVT2.MSCV.gD.FcRH3 cells, PE mu anti-human IgG
T4 construct: whole, on cells; also called huFcRH3; not shown: gD tag; the construct for this FcRH is not described
T4 sequence (looked up): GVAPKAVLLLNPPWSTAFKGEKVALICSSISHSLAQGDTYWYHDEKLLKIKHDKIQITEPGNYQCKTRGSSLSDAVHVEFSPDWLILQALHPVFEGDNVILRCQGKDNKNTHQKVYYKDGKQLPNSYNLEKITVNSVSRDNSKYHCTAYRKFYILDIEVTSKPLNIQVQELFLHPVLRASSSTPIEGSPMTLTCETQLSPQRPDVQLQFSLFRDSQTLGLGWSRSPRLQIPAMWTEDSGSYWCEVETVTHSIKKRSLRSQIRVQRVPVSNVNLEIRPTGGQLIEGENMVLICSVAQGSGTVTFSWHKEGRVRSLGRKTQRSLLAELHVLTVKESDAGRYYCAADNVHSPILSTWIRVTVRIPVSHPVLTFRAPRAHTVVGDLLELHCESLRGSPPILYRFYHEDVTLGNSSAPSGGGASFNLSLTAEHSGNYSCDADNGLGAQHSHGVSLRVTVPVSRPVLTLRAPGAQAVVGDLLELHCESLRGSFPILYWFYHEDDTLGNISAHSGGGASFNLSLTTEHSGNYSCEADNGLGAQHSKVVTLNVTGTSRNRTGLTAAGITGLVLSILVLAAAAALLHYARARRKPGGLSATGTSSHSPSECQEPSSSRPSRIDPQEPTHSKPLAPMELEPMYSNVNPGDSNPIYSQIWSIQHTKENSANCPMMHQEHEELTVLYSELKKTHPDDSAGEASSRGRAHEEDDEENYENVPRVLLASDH

[5] = biological target: T5, gD tagged human FcRH2 on SVT2 cells (human, UniProt Q96LA5 20-508); test: FACS, SVT2.MSCV.gD.FcRH2 cells, PE mu anti-human IgG
T5 construct: whole, on cells; also called huFcRH2; not shown: gD tag; the construct for this FcRH is not described
T5 sequence (looked up): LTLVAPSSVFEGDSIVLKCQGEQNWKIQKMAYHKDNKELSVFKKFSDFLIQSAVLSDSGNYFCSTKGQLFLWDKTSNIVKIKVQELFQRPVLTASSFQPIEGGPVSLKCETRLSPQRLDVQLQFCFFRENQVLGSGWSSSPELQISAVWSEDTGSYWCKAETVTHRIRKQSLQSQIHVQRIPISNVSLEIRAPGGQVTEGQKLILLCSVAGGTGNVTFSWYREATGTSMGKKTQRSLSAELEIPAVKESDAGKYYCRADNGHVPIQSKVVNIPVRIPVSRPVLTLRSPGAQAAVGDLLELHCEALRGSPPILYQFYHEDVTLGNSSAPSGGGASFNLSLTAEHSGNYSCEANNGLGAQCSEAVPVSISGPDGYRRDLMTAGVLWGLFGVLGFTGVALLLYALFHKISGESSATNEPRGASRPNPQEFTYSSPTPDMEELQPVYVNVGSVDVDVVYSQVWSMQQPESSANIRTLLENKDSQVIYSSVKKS

[6] = biological target: T6, cynomolgus FcRH5 on stably transfected SVT2 cells (cynomologous monkey); test: Scatchard analysis: 0.5 nM 125I-labeled antibody competed with the unlabeled antibody (50 to 0.02 nM) on SVT2.cyFcRH5 cells, 4 h at 4 C; St. Error 0.091
T6 construct: also called cyno FcRH5; cynoFcRH5
T6 chain: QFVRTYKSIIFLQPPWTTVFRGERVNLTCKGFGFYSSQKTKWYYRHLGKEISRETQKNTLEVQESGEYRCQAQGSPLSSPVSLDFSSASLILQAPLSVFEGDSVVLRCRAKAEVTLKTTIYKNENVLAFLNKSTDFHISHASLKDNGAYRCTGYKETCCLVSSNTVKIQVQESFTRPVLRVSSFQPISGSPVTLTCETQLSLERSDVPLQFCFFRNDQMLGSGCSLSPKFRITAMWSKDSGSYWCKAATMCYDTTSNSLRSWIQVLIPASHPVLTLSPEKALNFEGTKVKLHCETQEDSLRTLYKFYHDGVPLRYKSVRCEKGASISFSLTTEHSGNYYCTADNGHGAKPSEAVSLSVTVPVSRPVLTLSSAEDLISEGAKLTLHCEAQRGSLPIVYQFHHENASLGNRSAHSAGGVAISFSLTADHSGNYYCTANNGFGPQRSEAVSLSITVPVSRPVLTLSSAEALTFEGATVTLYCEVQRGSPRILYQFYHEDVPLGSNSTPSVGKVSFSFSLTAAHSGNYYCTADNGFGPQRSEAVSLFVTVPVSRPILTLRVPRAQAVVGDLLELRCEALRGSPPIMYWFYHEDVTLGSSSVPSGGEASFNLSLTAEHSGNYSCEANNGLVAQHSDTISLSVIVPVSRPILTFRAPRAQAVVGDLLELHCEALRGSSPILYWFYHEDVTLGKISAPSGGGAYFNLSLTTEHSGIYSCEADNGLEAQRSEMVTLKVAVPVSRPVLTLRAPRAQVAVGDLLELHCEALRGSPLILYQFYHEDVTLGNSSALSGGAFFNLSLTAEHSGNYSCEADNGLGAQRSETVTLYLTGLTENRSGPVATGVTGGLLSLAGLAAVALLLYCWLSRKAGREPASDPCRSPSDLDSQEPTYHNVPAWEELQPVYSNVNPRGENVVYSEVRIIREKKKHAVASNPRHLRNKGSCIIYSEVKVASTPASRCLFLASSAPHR
Protocol: To further determine binding of the FcRH5 murine antibodies and IgG clones, binding of iodinated IgG variants to OPM2 cells expressing human FcRH5 and SVT2 cells expressing cynomologous FcRH5, Scatchard analysis was performed (Table 9A).
For Scatchard analysis, 0.5 nM I¹²⁵ labeled murine or IgG clone anti-FcRH5 was competed against unlabeled murine or IgG clone anti-FcRH5, respectively, ranging from 50 to 0.02 nM (12 step 1:2 serial dilution) in the presence of a transfected OPM2 line stably expressing human-FcRH5 and a transfected SVT2 line stably expressing cynomologous-FcRH5. After a four hour incubation at 4° C., cells were washed and cell pellet counts were read by a gamma counter (1470 WIZARD Automatic Gamma Counter; Perkin Elmer, Walthem, Mass.). All points were done in triplicate and counted for 10 minutes. The average CPM was used for Kd calculation using the New Ligand (Genentech, South San Francisco, Calif.) program.

B1: chimeric anti-human FcRH5 antibody 7D11 (antibody, human IgG1, kappa)
heavy: not shown
light: DILLTQSPAILSVSPGERVSFSCRSSQSIGTNIHWYQQRTNGSPRLLIKFASESLSGIPSRFSGSGSGTDFTLSINSVESEDFADYYCQQSNSWPLTFGAGTKVEIKRTVAAPSVFIFPPSDEQLKSGTASVVCLLNNFYPREAKVQWKVDNALQSGNSQESVTEQDSKDSTYSLSSTLTLSKADYEKHKVYACEVTHQGLSSPVTKSFNRGEC
notes: Mouse/human chimeric IgG1 kappa expressed in 293 cells; also called ch7D11; Ch anti-FcRH5 (7D11)
binding result [1]: no binding (tested: 1.0 ug per about 10^6 cells (p-1120)) | binding result [2]: no binding (tested: 1.0 ug per about 10^6 cells (p-1120)) | binding result [3]: no binding (tested: 1.0 ug per about 10^6 cells (p-1120)) | binding result [4]: no binding (tested: 1.0 ug per about 10^6 cells (p-1120)) | binding result [5]: no binding (tested: 1.0 ug per about 10^6 cells (p-1120))

B2: chimeric anti-human FcRH5 antibody 13G9 (antibody, human IgG1, kappa)
heavy: not shown
light: DIVMTQSQKIMSTSVGDRVNVTCKASQNVGSNVAWYHQKPGQSPKALIYSASYRYSGVPDRFTGSGSGTDFTLTISNVQSEDLAEYFCQQYKTWTFGGGTKLEIKRTVAAPSVFIFPPSDEQLKSGTASVVCLLNNFYPREAKVQWKVDNALQSGNSQESVTEQDSKDSTYSLSSTLTLSKADYEKHKVYACEVTHQGLSSPVTKSFNRGEC
notes: Expressed in 293 cells; also called ch13G9; chMAFcRH5 (13G9)
Kd [6]: 1.08 nM
